Data published in the supplement of paper PMC10724198.

Experiments:
Saccharomyces cerevisiae [1] = experiment: protein stability index of tFT-peptide fusion in wild type (PSI (0-1 scale)); higher = more stable (slower turnover); conditions: genetic background: wild type
Description: (§1)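 MPS profiling in S. cerevisiae of two library types built from selected 12-aa C-degron peptides (IN1, IN2, LN1, LN3, VN2, R1-R5, W1-W3, Atg1 and Rpa12 C-termini): saturation mutagenesis libraries and C-terminal +1 capping libraries (13 aa). Each peptide is fused to the C-terminus of a sfGFP-mCherry timer, after a GGGS linker. Cells are FACS-sorted into 8 mCherry/sfGFP bins and sequenced. PSI runs from 0 (unstable) to 1 (stable), measured once in wild type and in the das1Δ or doa10Δ background.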

Saccharomyces cerevisiae [2] = experiment: protein stability index of tFT-peptide fusion in deletion strain of DAS1 (PSI (0-1 scale)); higher = more stable (slower turnover)
Description: as §1
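For protein stability index of tFT-peptide fusion in deletion strain of DAS1 in this document: PSI is a weighted mean of each variant's read distribution over the sorted stability bins, computed only for variants having over 10 reads in total.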
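For protein stability index of tFT-peptide fusion in wild type in this document: PSI derived as read-weighted mean over the 8 sorting bins, only variants exceeding 10 total reads kept, mCherry placed adjacent to the peptide and sfGFP distal.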

| Sequence | protein stability index (Saccharomyces cerevisiae [1]) | protein stability index (Saccharomyces cerevisiae [2]) |
| --- | --- | --- |
| HDKRNHLIKLLN | 0.077 | 0.581 |
| HKILRQKMNHQN | 0.168 | 0.683 |
| IVVYLSCVACIN | 0.0176 | 0.0302 |
| KKHAKGQKQKIN | 0.121 | 0.565 |
| KKHKKGPKQKIN | 0.175 | 0.603 |
| KKHKKGQAQKIN | 0.0853 | 0.605 |
| KKHKKGQKIKIN | 0.294 | 0.576 |
| KKHKKGQKQEIN | 0.591 | 0.589 |
| KKHKKGQKQKAN | 0.308 | 0.709 |
| KKHKKGQKQKIK | 0.634 | 0.553 |
| KKHKKGQKQKIL | 0.222 | 0.595 |
| KKHKKGQKQKIS | 0.101 | 0.607 |
| KKHKKGQKQMIN | 0.117 | 0.591 |
| KKHKKGQKVKIN | 0.225 | 0.615 |
| KKHKKGQLQKIN | 0.121 | 0.628 |
| KKHKKGQNQKIN | 0.191 | 0.625 |
| KKHKKQQKQKIN | 0.0595 | 0.59 |
| KLHKKGQKQKIN | 0.0703 | 0.612 |
| KTSCGYKFRTNN | 0.225 | 0.679 |
| LDKRNHLIKLLN | 0.137 | 0.599 |
| LEVYLSCVACIN | 0.0193 | 0.0737 |
| LKILDQKMNHQN | 0.648 | 0.691 |
| LKILRLKMNHQN | 0.171 | 0.65 |

| Sequence | protein stability index (Saccharomyces cerevisiae [1]) | protein stability index (Saccharomyces cerevisiae [2]) |
| --- | --- | --- |
| LKILRQIMNHQN | 0.244 | 0.693 |
| LKILRQKDNHQN | 0.664 | 0.666 |
| LKILRQKMNHQC | 0.184 | 0.635 |
| LKILRQKMNHSN | 0.231 | 0.674 |
| LKILRQKMNLQN | 0.221 | 0.666 |
| LKILRQKMNWQN | 0.286 | 0.661 |
| LKILRQKMYHQN | 0.249 | 0.658 |
| LKILRQLMNHQN | 0.219 | 0.665 |
| LKILRQPMNHQN | 0.658 | 0.68 |
| LKILRQWMNHQN | 0.184 | 0.693 |
| LKILRQYMNHQN | 0.242 | 0.675 |
| LKQLRQKMNHQN | 0.212 | 0.663 |
| LKSLRQKMNHQN | 0.202 | 0.681 |
| LLVYLSCVACIN | 0.0174 | 0.0429 |
| LRWRVGLWRGAS | 0.0917 | 0.682 |
| LSMRWTFRYWVN | 0.0756 | 0.531 |
| LVVHLSCVACIN | 0.0147 | 0.0251 |
| LVVYDSCVACIN | 0.368 | 0.468 |
| LVVYLNCVACIN | 0.0331 | 0.0265 |
| LVVYLPCVACIN | 0.119 | 0.202 |
| LVVYLSCNACIN | 0.0647 | 0.0655 |
| LVVYLSCVACINA | 0.0212 | 0.0343 |
| LVVYLSCVACINP | 0.0199 | 0.0332 |

| Sequence | protein stability index (Saccharomyces cerevisiae [1]) | protein stability index (Saccharomyces cerevisiae [2]) |
| --- | --- | --- |
| LVVYLSCVACIP | 0.0232 | 0.0442 |
| LVVYLSCVLCIN | 0.0221 | 0.141 |
| LVVYLSCVQCIN | 0.0151 | 0.0333 |
| LVVYLSGVACIN | 0.181 | 0.264 |
| LVVYLSIVACIN | 0.0584 | 0.0849 |
| LVVYLSSVACIN | 0.0245 | 0.0579 |
| LVVYLWCVACIN | 0.0141 | 0.0851 |
| LVYYLSCVACIN | 0.0126 | 0.0331 |
| LWILRQKMNHQN | 0.124 | 0.695 |
| MLIQPLPVQFLN | 0.0562 | 0.654 |
| NVVYLSCVACIN | 0.0156 | 0.0341 |
| PAKRNHLIKLLN | 0.131 | 0.618 |
| PALAASFWRVVG | 0.178 | 0.687 |
| PDCRNHLIKLLN | 0.136 | 0.673 |
| PDIRNHLIKLLN | 0.134 | 0.675 |
| PDKRNFLIKLLN | 0.112 | 0.61 |
| PDKRNHHIKLLN | 0.111 | 0.665 |
| PDKRNHIIKLLN | 0.132 | 0.57 |
| PDKRNHLEKLLN | 0.292 | 0.63 |
| PDKRNHLIGLLN | 0.612 | 0.609 |
| PDKRNHLIILLN | 0.107 | 0.66 |
| PDKRNHLIKLLNL | 0.298 | 0.665 |
| PDKRNHLIKTLN | 0.164 | 0.604 |

| Sequence | protein stability index (Saccharomyces cerevisiae [1]) | protein stability index (Saccharomyces cerevisiae [2]) |
| --- | --- | --- |
| PDKRNHLIVLLN | 0.148 | 0.637 |
| PDKRNHLNKLLN | 0.126 | 0.579 |
| PDKRNHLRKLLN | 0.205 | 0.574 |
| PDKRNHRIKLLN | 0.159 | 0.661 |
| PDKRNQLIKLLN | 0.0747 | 0.633 |
| PDKRYHLIKLLN | 0.0495 | 0.597 |
| PDVRNHLIKLLN | 0.119 | 0.613 |
| PPKRNHLIKLLN | 0.116 | 0.581 |
| PSLAAAFWRVVG | 0.142 | 0.702 |
| PSLAADFWRVVG | 0.171 | 0.712 |
| PSLAAGFWRVVG | 0.164 | 0.678 |
| PSLAALFWRVVG | 0.129 | 0.674 |
| PSLAASCWRVVG | 0.143 | 0.675 |
| PSLAASFWRGVG | 0.232 | 0.707 |
| PSLAASFWRRVG | 0.128 | 0.69 |
| PSLAASFWRVDG | 0.68 | 0.7 |
| PSLAASFWRVNG | 0.167 | 0.702 |
| PSLAASFWRVVGF | 0.692 | 0.693 |
| PSLAASFWRVVGQ | 0.649 | 0.705 |
| PSLAASFWRVVGR | 0.692 | 0.691 |
